Test system: MS2 coat protein
Test: apparent KD of MS2 coat protein; designed switch direction (-1 OFF switch, 1 ON switch): -1; higher = weaker reporter binding
Method in brief: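 RNA switches sharing common flanks were transcribed by stalled E. coli RNA polymerase on Illumina chips. A doubling series of SNAP-549-labelled MS2 coat protein, from 0.7 or 1.5 nM to 3 µM, was applied in Tris-HCl pH 7.5 buffer with KCl, MgCl2, BSA, DTT, tRNA and Tween-20. Each step lasted 0.8–1.5 h at the bottom of the series and 10–20 min at the top. Normalised cluster fluorescence was curve-fitted, giving apparent KD as the per-design median over clusters.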

[1] = Eterna round: R95, input ligand: FMN 200 uM
[2] = Eterna round: R95, input ligand: microRNA oligo, concentration not stated
[3] = Eterna round: R95, input ligand: none
[4] = input ligand: microRNA oligo, concentration not stated

| Sequence | apparent KD of MS2 coat protein [1] [nM] | apparent KD of MS2 coat protein [2] [nM] | apparent KD of MS2 coat protein [3] [nM] | apparent KD of MS2 coat protein (input ligand: FMN 200 uM) [nM] | apparent KD of MS2 coat protein [4] [nM] | apparent KD of MS2 coat protein (input ligand: none) [nM] |
| --- | --- | --- | --- | --- | --- | --- |
| AGUACUAACACGAAAGUGUUAGUACAAUAAGCUUGUAAAACAUGAGGAUCACCCAUGUCCUCAUAAGCUCGUCUUAU [Mat - Sensor v3 - Turn-off var 2 - D47] (puzzle: Sensor v3, turn-off variant 2) | 250 | 11.5 | 446 | – | – | – |
| AGUACUAACACGAAAGUGUUAGUACAAUAAGCUUGUGUUACAUGAGGAUCACCCAUGUCCUCAUAAGCUCGUCUUAG [Mat - Sensor v3 - Turn-off var 2 - D50] (puzzle: Sensor v3, turn-off variant 2) | 45.9 | 351 | 45.4 | – | – | – |
| AGUACUAACACGGAUGUGUUAGUACAAUAAGCUUGUGAAACAUGAGGAUCACCCAUGUCCUCAUAAGCUCGUCUUAU [salish99_TOv2_r3_067] (puzzle: Sensor v3, turn-off variant 2) | 15.5 | 677 | 14.7 | – | – | – |
| AGUACUAACACGUCGGUGUUAGUACAAUAAGCUUGUGAAACAUGAGGAUCACCCAUGUCCUCAUAAGCUCGUCUUAU [salish99_TOv2_r3_080] (Eterna round: R96, puzzle: Sensor v3, turn-off variant 2) | – | – | – | 16.4 | 492 | 17.8 |
| AGUACUAACACGUCGGUGUUAGUACAAUAAGCUUGUGAAACAUGAGGAUCACCCAUGUCCUCAUAAGCUCGUCUUAU [salish99_TOv2_r3_080] (puzzle: Sensor v3, turn-off variant 2) | 17.4 | 575 | 15.5 | – | – | – |
| AGUACUAUCGCGAAAGCGAUAGUACAAAAAGCAAGUGAAACAUGAGGAUCACCCAUGUCCUCAUUUGCUCGUCUUAU [Mat - Sensor v2 -ver2- JL mod - D89] (Eterna round: R96, puzzle: Sensor v2, turn-off variant 2) | – | – | – | 12.1 | 390 | 14.3 |
| AGUACUGACGCGUCGGUGUUAGUACAAUAAGCUUGUGAAACAUGAGGAUCACCCAUGUCCUCAUAAGCUCGUCUUAU [salish99_TOv2_r3_082] (puzzle: Sensor v3, turn-off variant 2) | 15.9 | 720 | 15.4 | – | – | – |
| AGUAGAUCUACGCUUGCGUGGAUCUGCUAUGCAGGUGUUACAUGAGGAUCACCCAUGUCCUCAUUUGUUCGUCUUAU [JL turnoff v2 99.15] (puzzle: Sensor v3, turn-off variant 2) | 135 | 111 | 185 | – | – | – |
| AGUAGGUCUACCUUGGUGGAUCUGCAUAAAGCAAGUGAUACAUGAGGAUCACCCAUGUCCUCAUUUGCUCGUCUUAU [JL turnoff v2 99.21] (puzzle: Sensor v3, turn-off variant 2) | 14 | 216 | 14.1 | – | – | – |
| AGUAGUAGUAUCCGAUCUUACAUGAGGAUCACCCAUGUUUCUAGACGUGCACGCGAUGCUCGUCAGACUACCAGAUG [salish99_TOv1_r3_053] (puzzle: Sensor v3, turn-off variant 1) | 128 | 173 | 174 | – | – | – |
| AGUAGUUCAGGAUAUGAUGAAGAGAACAUGAGGAUCACCCAUGUUGCAUCGUUUUUAUCAUCAGAAGGGAAUAACU [JR_Ex5_Sub085] (Eterna round: R97, puzzle: Exclusion 5) | – | – | – | 12.7 | – | 13.1 |
| AGUAGUUGUUUCCGUUCUUACAUGAGGAUCACCCAUGUUUCUUGUCGUGCUCGCGAUGCUCGUCAGACUACCAGAUG [salish99_TOv1_r3_059] (Eterna round: R96, puzzle: Sensor v3, turn-off variant 1) | – | – | – | 63 | 40.6 | 59.1 |
| AGUAGUUGUUUCCGUUCUUACAUGAGGAUCACCCAUGUUUCUUGUCGUGCUCGCGAUGCUCGUCAGACUACCAGAUG [salish99_TOv1_r3_059] (puzzle: Sensor v3, turn-off variant 1) | 53.4 | 65.7 | 72.8 | – | – | – |
| AGUAUGUCAGGAUAUCUCGGGUAGUCCACAACAGCUACCGAAGAGAAGGGACAUGAGGAUCACCCAUGUACCAU [EX4 B.23] (Eterna round: R97, puzzle: Exclusion 4) | – | – | – | 19.4 | – | 30.6 |
| AGUCCACAUGAGGAUCACCCAUGUCAGGAUAUCUGCUGGAAGAGGGCAGAAAGCCAGGAGAGAAGGGACCUGGG [Usarila] (puzzle: Exclusion 1) | – | 34 | – | – | – | – |
| AGUCCUGGAGUUAGGAUAUGGAGUAUCACUGCACUUCAGAAGGGACUUGAGGAUCACCCAAGUAGCCGUGAGGG [salish99_bmod_ex4_r4_004] (Eterna round: R97, puzzle: Brourd's mod of Exclusion 4) | – | – | – | 74.3 | – | 49.2 |
| AGUCGGCGAGGAUAUACAUGAGGAUCACCCAUGUGAGAGAAUAAAGUGAGUUAGACAAGUAGAAGGCGCUGACA [JL Lego Mod 10] (Eterna round: R96, puzzle: Exclusion 3) | – | – | – | 356 | 40.9 | 48.1 |

| Sequence | apparent KD of MS2 coat protein [1] [nM] | apparent KD of MS2 coat protein [2] [nM] | apparent KD of MS2 coat protein [3] [nM] | apparent KD of MS2 coat protein (input ligand: FMN 200 uM) [nM] | apparent KD of MS2 coat protein [4] [nM] | apparent KD of MS2 coat protein (input ligand: none) [nM] |
| --- | --- | --- | --- | --- | --- | --- |
| AGUCGGCGAGGAUAUACAUGAGGAUCACCCAUGUGAGAUAGUGCACGCGUACGUGUACGUAGAAGGCGCUGACA [Mat - Exclusion 3 - Mod of JL D94] (puzzle: Exclusion 3) | – | 11.1 | – | – | – | – |
| AGUCUGCGAGGAUAUACAUGAGGAUCACCCAUGUGCGAGAUACUAGUGAGGUCGAUUGGUAGAAGGCGCGGACA [Mat - Exclusion 3 - Mod of JL D86] (puzzle: Exclusion 3) | – | 84.5 | – | – | – | – |
| AGUGCGUAUGUGAGGAUAUGCUGGUCCUUGGAUCGGCAGAAGGUACAUGAGGAUCACCCAUGUGGUGUCGUUCU [salish99_Bmod_ex4_104] (puzzle: Brourd's mod of Exclusion 4) | 94 | 409 | 261 | – | – | – |
| AGUGGGCGCGUAGGAUAUGAGGAUCACCCAUAGAAGGAUAUCGAAAGAGAAGGUCUGAGGAUUACCCAGAAGGACGGGUUUGUA [pwkr exNG2 2xF5 2xFMN.15] (Eterna round: R96, puzzle: Exclusion NG 2) | – | – | – | 925 | 278 | 232 |
| AGUGGGCUAGGAUAUCGAUGAACUCACAUGAGGAUCACCCAUGUGUCUUUGGUGGGCGCACGAGAAGGAGUAAGAU [Tiorat] (puzzle: Exclusion 5) | – | 36.5 | – | – | – | – |
| AGUGUCAAGCAAGCAAGGAACAUGAGGAUCACCCAUGUCGUACAAUAAACGCCCGCUCGUCGCACGUCGUGCGUAGA [Eternabot (Original) Solution 18] (Eterna round: R97, puzzle: Sensor, turn-off variant 1) | – | – | – | 34.3 | – | 27.2 |
| AGUGUGAUAGGAUAUACAUGAGGAUCACCCAUGUGAAUGGUAAUGUGUCCAAGAUCAGGUAGAAGGGUCGGGUU [Eternabot (L1) Solution 56] (Eterna round: R97, puzzle: Exclusion 3) | – | – | – | 83.6 | – | 101 |
| AGUUAUUCAGGAUAUGGUGUGUUAUACAUGAGGAUCACCCAUGUGGAUCCUGGUUAGGCCUCAGAAGGGAAUGUUA [salish99_ex5_r4_126] (Eterna round: R97, puzzle: Exclusion 5) | – | – | – | 412 | – | 435 |
| AGUUGGCGAGGAUAUACAUGAGGAUCACCCAUGUGAGAGAUACGAGUGAGGUCGAUUAGUAGAAGGCGCUGACA [Mat X3R4 m14] (Eterna round: R97, puzzle: Exclusion 3) | – | – | – | 984 | – | 161 |
| AGUUGGCGAGGAUAUACAUGAGGAUCACCCAUGUGAGAGAUACUGGUGAGGUCGAUUAGUAGAAGGCGCUGACA [Mat X3R4 m15] (Eterna round: R97, puzzle: Exclusion 3) | – | – | – | 137 | – | 654 |
| AGUUGGCGAGGAUAUACAUGAGGAUCACCCAUGUGAUAUUAAAGUGAGGAAAUGAAAAGUAGAAGGCGCUGACA [Mod of Mat 24 - Jieux - Exclusion 3] (Eterna round: R97, puzzle: Exclusion 3) | – | – | – | 662 | – | 47.3 |
| AUAAAACAUGAGGAUCACCCAUGUCAGGAUAUACGAUUCCACCCUAACUGCGUGGAACGUAGAAGGGACAUAGG [Exclusion 1 (MOD6 Esqu)] (Eterna round: R97, puzzle: Exclusion 1) | – | – | – | 62.7 | – | 76.4 |
| AUAAACCUAGGAUAUACAUGAGGAUCACCCAUGUAAGGGCAAUGCCCAUGCUCCUCAUGUAGAAGGAGGAGCAG [Xezausa] (puzzle: Exclusion 3) | – | 20.2 | – | – | – | – |
| AUAAAGUCAGGAUAUCGAAGUGAGUGGUGGAGGGUAAGGUACGAGAAGGGACAUGAGGAUCACCCAUGUAGGAA [JR_Exclusion4)Sub005] (puzzle: Exclusion 4) | 24 | 27.2 | 29.5 | – | – | – |
| AUAAAUAACGUUAGGAUAUAUUUUGUGACAUCAGGAUAGAAGGAACAUGAGGAUCACCCAUGUGAUUCUGUGAA [Maenin] (puzzle: Brourd's mod of Exclusion 4) | 46.6 | 37.2 | 40.3 | – | – | – |
| AUAAAUCAUGUAGGAUAUGCGUGGCGAAGCUAUGCAGAAGGACAUGAGGAUCACCCAUGUGCUUGCGUCUGAGUACAGAUGCUA [Mat - Exclusion NG 1 - Mod of JL - D6] (Eterna round: R96, puzzle: Exclusion NG 1) | – | – | – | 264 | 77.1 | 91.8 |
